Measured values published in the DeepSol protein solubility set.

experiment: soluble on expression in E. coli; label from the status in PepcDB or PDB records

| Sequence | soluble on expression in E. coli |
| --- | --- |
| FPAISEHFTEDYSSHTEQMLDLVLDSTDMRIEDGKRINPAFMFAAMLWYPLCALADKLMDQHNLCHYDAIMEASNIILDDQVRTIAIPRRHTATIREIWQLQLRLPRRNGKRAFRLMELNKFRAGFDFLEMRGEIEGGDTLKLAKWWETFQNAGREMRQAMAADLDGQAPKSGQRRRKTFRKKKSKPKS | not soluble |
| PWTQNKRNLKHLNQLKEDILNNFEDLKLKDEKIIVMLSGGKDSAVSLAVAKELGLNVHLCVHFVHKWSWDISTNEAKKLADRFNIPIIFPNVTEELAKKTQGAKGKSICRICKTIMKARMIDIAKEENAKIIMTGETALEKIAGPVFQYIRENNTNVKRKDEFELYKKMEITKVPKRYKIHFFRPLIRVGHFDVFNLQKYYNIDIKRVSE | not soluble |
| MLEARDLYCERDERTLFRGLSFTVDAGEWVQVTGGNGAGKTTLLRLLTGLARPDGGEVYWQGEPLRRVRDSFHRSLLWIGHQPGIKTRLTARENLHFFHPGDGARLPEALAQAGLAGFEDVPVAQLSAGQQRRVALARLWLTRAALWVLDEPFTAIDVNGVARLTRRMAAHTAQGGMVILTTHQPLPGAADTVRRLALTGGGAGL | not soluble |
| MNTASLVRSLSRVALRSSQVVRMAAPRHFSQSAKVLSVTPELQQALNREIEAEQQLSSDNLQGAVAPTFAGFQVTNKDAEVRLTKKNGSEDILVVFNVNHSVDMDEGFDDEPSQAVAPVPVAMPPFTVEITKGDQRLCFHLELVPVDDQPDEYDFRVEEFYVAPSAKNGNEDVPSEVYASSGKYIDPDLHDLLFVRYLEERGLDARFCKTLVAYATHYEHSQYVGLLDKIKKFISK | not soluble |
| MMSIFRKLMPREDRFFDMFSKHSETVIKAAAALDQLLSGIDVEKNCDLIVALENQADDITREVLLAVRRSFITPFDRGDIKDLIQSMDDAIDMMHKTVKTIRLFEQSEFDPLMKEMGHEIVRAAGLIAEAIPLLNKVGANAQRLSAIAEEVTRVEGRSDDLHDQGLKDLFRRHGANGNAMAYMIGSEIYGELEKVVDRFEDVANEISGIVIENVLEHHHHHH | soluble |
| MNNTVIACVDGSPSTRPVCEYAAWAAGKLGAPLALLHVLEKSETPAVSDLTGSIGIDSREQLTEALVRVEGERSRLLMAQGKAVLAGCAELLKQTGQPDAQLLQKHGALDEILAELGEVRLMVLGRRGTQNQVGSHLESVIRLQKNPVLIVPETFTPPARVMFAYDGSSESRKNLTRLTVSPLLHGLSCHIVMVNGDMSALQDAQAVLQEAGITTETRLLEDESVTGALCRYADAHDIDLTVMGACGHSRLRRFFIGSHTTEMLSESRQPLLMLR | not soluble |
| MGSDKIHHHHHHMTAQTHNDVAVCWNQNANQWTSDVRNGYDVYRDFFTLPAFLQFLPTMADLNVIDFGCGEGSNTRHFAQMGAKVVGIDISNGLIEHARQAERVDPVGITYKIVSYSSDTGFPASSFDAVVSTMALMDGPDLQGAMHEAYRLLRPGGFVAFSVLHPCFITPGWQWQKDENGQTTGLCTSRYFDKSGFTENWKFGNRPKDENVAPFAVPRFPRTIGDYINAVASVGFRISKIEEPQPTEEACKAIPQLRRWRDLGAFLLLVIAERPK | not soluble |
| MIYSFRNSGFRDPETGVYNQTYFMEVFNREWHRHIREQQSLALLYLCPHIHETVKQPHLLEFFTKQVQEALLRATDLIARLDHNHFALGLFNIDEEGTEVVLKRIGQHIQDFNQEFGKNHKLKIDYKLAACLCLPTQEQKIESMFNNVSKLSQELERSPQQSQALIKLQ | not soluble |
| QSLVKDFLSGVFMLIEDQYGVGDTIDVGDVVGTVEDVSLRLTTLRDINGTQWFVRNGEILRVGNFSQEYAVAIINVPIALDEKASDAIALIEKSVADEAQLQEVADVLLDDPVVDGVNSVGLDHMVIRTRVTTLPDQQWFIERKMRARILTDLQRNGIDTPYPEGIGAYRRLDDEE | not soluble |
| SLEPIGRSLQGVTGRPDFQKRLEQMKEKVMKDQDVQAFLKENEEVIDQKMIEKSLNKLYEYIEQSKNCSYCSEDENCNNLLEGYHPKLVVNGRSIDIEYYECPVKRKLDQQKKQQSLMKSMYIQQDLLGATFQQVDISDPSRLAMFQHVTDFLKSYNETGKGKGLYLYGKFGVGKTFMLAAIANELAEKEYSSMIVYVPEFVRELKNSLQDQTLEEKLNMVKTTPVLMLDDIGAESMTSWVRDEVIGTVLQHRMSQQLPTFFSSNFSPDELKHHFTYSQRGEKEEVKAARLMERILYLAAPIRLDGENRRHP | soluble |
| MRVMAFVQARMGSTRLPGKSLMPVWNGMGVLEMTLRRALRARTLSGVVLCTSTDPACDALETLASGLGVQAFRGPEDDVLTRYALATERFEPDAVVRICADSPLVCPEGIDALVAFFRDEGLDYAAHAMDGTGLPDGLGCEVFTAAALAQAHAEATAPEDREHVSLFIRHRPERFRQATLAADAALRAPGVSLDVDTQDDLDALRRFIMALPPSEGPFWSADAIAPLARGLHTPPQGTSMDIASDDYHDFFIRDGKLIGEFEQMYRKSRHAPWHQDEACDKWFNKVSAALVGHALDDPSVRTVFEVGSGLGYFLSQFAGEGRTLTGTDVSATAVEKARALFPGISFEVDDIRFEGRRGPYDLCLMQAVCWCIFPHMDDVVRNVTATVRPGGYLFLGECFQPLDGPFAGKDVIPTPDALIGHFSHAFDTVADVRVTRGEMGGGPIIYWLGRRRGLEHHHHHH | soluble |
| MVLKRKGLLIILDGLGDRPIKELNGLTPLEYANTPNMDKLAEIGILGQQDPIKPGQPAGSDTAHLSIFGYDPYETYRGRGFFEALGVGLDLSKDDLAFRVNFATLENGIITDRRAGRISTEEAHELARAIQEEVDIGVDFIFKGATGHRAVLVLKGMSRGYKVGDNDPHEAGKPPLKFSYEDEDSKKVAEILEEFVKKAQEVLEKHPINERRRKEGKPIANYLLIRGAGTYPNIPMKFTEQWKVKAAGVIAVALVKGVARAVGFDVYTPEGATGEYNTNEMAKAKKAVELLKDYDFVFLHFKPTDAAGHDNKPKLKAELIERADRMIGYILDHVDLEEVVIAITGDHSTPCEVMNHSGDPVPLLIAGGGVRTDDTKRFGEREAMKGGLGRIRGHDIVPIMMDLMNRSEKFGA | soluble |
| MIDKHVACERPLTVYLNWRPIVTLMTLGAKPESLALGYLKNQGFISDVSQLESVIVDWGVNSAAVLTREQTADIDKKLSEKTVTSGCGQGTVYGSFMQDLEGIQLPRPSLKQSTLYSLLKNINEYNDTYKNAGAVHGCGVCEADQILAFVEDVGRHNAVDTLAGDMWLAQDRGDNKIFYTTGRLTSEMVIKVAKMGIPVLLSRSGVTQMGLELAQNLGITIIARAKGRHFLVYHGSENLEFDVNTSPSKLEHHHHHH | not soluble |
| MSLYKDDSLTLHTDLYQINMMQVYFEQGIHNRHAVFEVYFRKEPFNNGYAVFAGLQRMVEYLEQFQFSETDLAYLEELGYPENFLTYLKELRLELTIRSAKEGDLVFANEPIVQVEGPLGQCQLVETALLNIVNFQTLIATKAARIRSVIEDEPLLEFGTRRAQELDAAIWGTRAAMIGGADATSNVRAGKRFDIPVSGTHAHALVQAYGNDYDAFMAYAKTHKDCVFLVDTYDTLKVGVPTAIRVAKEMGDKINFLGVRLDSGDLAYLSKTVRQQLDDAGFTEAKIYASNDLDENTILNLKMQKAKIDVWGVGTKLITAYDQPALGAVYKIVSIEQEDGSMRDTIKLSNNAEKVSTPGKKQVWRITSREKGKSEGDYITFTDINVNELTEIEMFHPTYTYIKKTVKEFDAIPLLVDIFVKGELVYQLPTLAEIKAYAKKEFDKLWDEYKRVLNPQDYPVDLARDVWQNKMALIDNIRKDAYGKSEEGHHHHHH | soluble |
| MGHHHHHHSHMDEGVKEKFIGAVLGAAVGDALGKSVEDITEEEVFEFYGDRIRDFVTPHPSSPAYGQLPEETSDETTIFRLLLESLVEKKALDVRDFLNRLMEWYDREEMHRYPDPMLLTAIDLLSRGINPSTHGLTSFSVEGILRSVALGLYHYYNPELAAEGSKVVSLLTHRSDVISDASAILGALIAHLVRGDFYLEDFREKLRLIETLKDYAKEEKHKKILDRVAELLMESADLETAINTLGNGTFAFEAFPLALYIFLSNVENPEEALFQAVNSYGEFGGDTDAIGFLVGAMLGAYYGEEAIPYHLRENVENSQKLRELAERLYEVVEKQVGFSQ | soluble |
| RDFNNLTKGLCTINSWHIYGKDNAVRIGEDSDVLVTREPYVSCDPDECRFYALSQGTTIRGKHSNGTIHDRSQYRALISWPLSSPPTVYNSRVECIGWSSTSCHDGKTRMSICISGPNNNASAVIWYNRRPVTEINTWARNILRTQESECVCHNGVCPVVFTDGSATGPAETRIYYFKEGKILKWEPLAGTAKHIEECSCYGERAEITCTCRDNWQGSNRPVIRIDPVAMTHTSQYICSPVLTDNPRPNDPTVGKCNDPYPGNNNNGVKGFSYLDGVNTWLGRTISIASRSGYEMLKVPNALTDDKSKPTQGQTIVLNTDWSGYSGSFMDYWAEGECYRACFYVELIRGRPKEDKVWWTSNSIVSMCSSTEFLGQWDWPDGAKIEYFL | soluble |
| GPGSMAAIGGGSGDIEELLKQITNHPGVQGIIIVNTDGIPIRHTFQEHSRLLAVQYSALFQSLAMKARNAVLEIDNNNELLFLRVRTKKHEVLVAPDTKYLLIVIQQVESGDAVPNANGVSA | not soluble |
| GHMNMSQSQEIVLQPRSIVVPGELLAEGEFQIPWSPYILKINSKYYSTVVGLFDVKDTQFEVIPLEGSFYYPKINDIVIGLVEDVEIYGWVVDIKAPYKAYLPASNLLGRSINVGEDLRRYLDVGDYVIARIENFDRSIDPVLSVKGKDLGRVSNGIVIDIMPVKVPRVIGKNKSMYETLTSKSGCSIFVANNGRIWATCPSRFSEEILIEAIRKIENESHIKGLTDRIKQFIEEKLGERNASSGETKTNS | soluble |
| GSHNATSGHEDMPVERILEAELAVEPKTESYGDMNMENSTNDPVTNICHAADKQLFTLVEWAKRIPHFSDLTLEDQVILLRAGWNELLIASFSHRSVSVQDGILLATGLHVHRSSAHSAGVGSIFDRVLTELVSKMKDMQMDKSELGCLRAIVLFNPDAKGLSNPSEVETLREKVYATLEAYTKQKYPEQPGRFAKLLLRLPALRSIGLKCLEHLFFFKLIGDTPIDTFLMEMLETPLQIT | soluble |
| MADTRPERRFTRIDRLPPYVFNITAELKMAARRRGEDIIDFSMGNPDGATPPHIVEKLCTVAQRPDTHGYSTSRGIPRLRRAISRWYQDRYDVEIDPESEAIVTIGSKEGLAHLMLATLDHGDTVLVPNPSYPIHIYGAVIAGAQVRSVPLVEGVDFFNELERAIRESYPKPKMMILGFPSNPTAQCVELEFFEKVVALAKRYDVLVVHDLAYADIVYDGWKAPSIMQVPGARDVAVEFFTLSKSYNMAGWRIGFMVGNKTLVSALARIKSYHDYGTFTPLQVAAIAALEGDQQCVRDIAEQYKRRRDVLVKGLHEAGWMVEMPKASMYVWAKIPEPYAAMGSLEFAKKLLNEAKVCVSPGIGFGDYGDTHVRFALIENRDRIRQAIRGIKAMFRADGLLPASSKHIHENAE | soluble |
| MGSDKIHHHHHHMREAVMCRFVAYLGRPTLLENVLVRPKNSIIMQSLHARETKYRTNGDGFGLGWYSPEVSSDPALFTSVYPAWNDRNLLHLTAKIQSPCFFAHVRSASAGGVTNYNCHPFIYGDWMLMHNGEINDFIDVKRHIRHLLDDDIYHWVKGQTDSEHLFGLFLQLAKGRDITQLSVAADVLQETINKILEVIGQFGHSGPSYFNICLTNGKKIIATRYCSHEKKKPLTLHYLIGYVLSTQGLWIKEEGNPAYVVVSSERLNDLDEGWEDVPPQHMILIDENKNIQLRPLQTLG | not soluble |
